Measurements as given in article PMC8196007, “HSP-90/kinase complexes are stabilized by the large PPIase FKB-6” (Scientific Reports, 2021).

B1: nematode CDC-37 (natural protein, C. elegans, UniProt O02108 1-370, looked up)
chain: MPIDYSKWKDIEVSDDEDDTHPNIDTPSLFRWRHQARLERMAEKKMEQEKIDKEKGTTSKKMEELEKKLAAADVTDKSDIQKQIDEVKAQEEAWRKKEAELEEKERLEPWNVDTIGHEAFSTSRINKITEKKPQAPKTDEEDTHAMSTFFETHESLLEKMAVLKNGAKSTELFLAEHPHMASEYTANWLTIEALNAAIDFNEEKMKTMAEQCIIIQYLLELSKSLNAVATNTTVQKQFFKKFEAAEPVYMKHYQDEVKAFEDRLRTRAQTKRDAAMEEAEAEEKAERMKSAPGGIDPQEVFEQLPEEMRKCFEAHDIEALKGVAQKMDEEVFKYHFDRCIASGLWVPGKADDDDDDEEAAPAEEEPTTSS
notes: CDC-37, C. elegans (nematode) Hsp90 cochaperone; source: E. coli BL21 (DE3) cod+, purified (HisTrap, gel filtration)
B2: FKB-6 (full-length) (natural protein, C. elegans, UniProt O45418 1-431, looked up)
chain: MSGEKIDITPKKDGGVLKLIKKEGQGVVKPTTGTTVKVHYVGTLENGTKFDSSRDRGDQFSFNLGRGNVIKGWDLGVATMTKGEVAEFTIRSDYGYGDAGSPPKIPGGATLIFEVELFEWSAEDISPDRDGTILRTIIVEGSKNSFPNDTSKVLAHCVGTYQGTEFYNREVNFHIGEGSEEGLPEGVERALRRFQLGEKSKIEIRGHKYTYGNSPPAGSNIPVNATLEFTIFLKEFEKVPATWEMTAEEKLDAAKQAKDRGTMYLQKGNLKLAYNKYKRAEEVLEYEKSTDPEKMAERETILNGAYLNLSLVCSKQNEQLECIKWCDKVLETKPGNVKALYRKATALLTMNEVRDAMKLFEKIVEVEPENKAAAQQIIVCRNTIREQNERDKKRFKNLFAKISTEEDKPTNTVEDEDEIVASTSGSSTSNA
notes: FKB-6, C. elegans large PPIase, homolog of human Fkbp51/Fkbp52; also called large PPIase FKB-6; source: E. coli BL21 (DE3) cod+, purified (HisTrap, gel filtration)

Tests used:
FKB-6 (full-length) = molecular target: B2; experiment: native MS; LILBID-MS of the BS3-crosslinked sample and of non-crosslinked mixtures, sB-Raf:CDC-37:FKB-6:HSP-90 = 1:1:1:1 or as indicated; 25 mM Tris, 20 mM KCl, pH 7.5; conditions: both partners purified
nematode HSP-90 = molecular target: T1, nematode HSP-90 (C. elegans, UniProt Q18688 1-702); experiment: as above; conditions: both partners purified
T1 construct: HSP-90, C. elegans (nematode) Hsp90; also called HSP-90 dimer; source: E. coli BL21 (DE3) cod+, purified (HisTrap, gel filtration)

Binder | binding result (FKB-6 (full-length)) | binding result (nematode HSP-90)
B1 | binds | binds
B2 | – | binds
